56 substances from the supplement of paper PMC10598134 can be followed below.

± gives the standard deviation.

This data set is described as follows: collision cross section of modified peptide (TIMS, N2, iRT-aligned); higher = larger / more extended gas-phase ion. Summed up: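 Synthetic peptide pools (~100 fmol/µL in 2% acetonitrile/0.1% formic acid, iRT standard spiked 1:40) were separated on a 120-min nanoflow C18 gradient at 60 °C. They were analysed on a timsTOF Pro/HT (dda-PASEF, nitrogen, ~2.4 mbar) and identified with MaxQuant. 1/K0 was calibrated with three reference ions and aligned run-wise to the median iRT peptide deviation. Collision cross section came from the Mason-Schamp equation, averaging 1–3 technical replicates of the most abundant feature per charge state.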

Setting [1] is: charge state: 3, modification: Hydroxyproline.
[2] abbreviates: charge state: 2, modification: Malonyl.
Setting [3] is: charge state: 2, modification: Trimethyl (K).
[4] abbreviates: charge state: 3, modification: Trimethyl (K).
The mark [5] stands for this setting: charge state: 2, modification: Methyl (K).
Setting [6] is: charge state: 3, modification: Methyl (K).
[7] abbreviates: charge state: 2, modification: GlyGly (K).
[8] abbreviates: charge state: 3, modification: GlyGly (K).
[9] abbreviates: charge state: 2, modification: Methyl (R).
Setting [10] is: charge state: 2, modification: Nitro (Y).
[11] abbreviates: charge state: 2, modification: Phospho (Y).
The mark [12] stands for this setting: charge state: 3, modification: Phospho (Y).
[13] abbreviates: charge state: 2, modification: Butyryl.
Setting [14] is: charge state: 2, modification: Hydroxyproline.
Where [15] appears, read: charge state: 2, modification: Acetyl (K).
Where [16] appears, read: charge state: 3, modification: Acetyl (K).
Where [17] appears, read: charge state: 3, modification: Citrullination (R).
Where [18] appears, read: charge state: 2, modification: Biotin.
[19] abbreviates: charge state: 3, modification: Biotin.
The mark [20] stands for this setting: charge state: 2, modification: Glutarylation.
[21] abbreviates: charge state: 2, modification: Formyl.
The mark [22] stands for this setting: charge state: 3, modification: Glutarylation.
[23] abbreviates: charge state: 3, modification: Dimethyl (K).
Where [24] appears, read: charge state: 2, modification: Dimethyl (K).
Setting [25] is: charge state: 2, modification: HexNAc (ST).
Where [26] appears, read: charge state: 2, modification: hydroxyisobutyryl.

The substance “TGPPGSTGSRGPPGPPGR [_TGPPGSTGSRGPPGPP(Hydroxyproline)GR_]” gave a collision cross section under setting [1] of 472.54 ± 0.36 Å². Regarding SEASSEFAKK [_SEASSEFAK(Malonyl)K_], the collision cross section under setting [2] was found to be 350.91 ± 0.74 Å².

“SSFAYKDQNENR [_SSFAYK(Trimethyl (K))DQNENR_]” came in with a collision cross section under setting [3] of 417.36 ± 0.75 Å² and a collision cross section under setting [4] of 458.31 ± 1.5 Å². On to “DSSPTTNSKLSALQR [_DSSPTTNSK(Methyl (K))LSALQR_]”, for which the collision cross section was determined as 419.3 Å² under setting [5] and 475.79 ± 3.5 Å² under setting [6].

Regarding VNALKNLQVK [_VNALK(Succinyl)NLQVK_], the collision cross section (charge state: 2, modification: Succinyl) amounted to 370.5 ± 1.8 Å².

On to SGFGKFER [_SGFGK(GlyGly (K))FER_], for which the collision cross section under setting [7] is on record as 340.43 ± 0.74 Å². Regarding “VFSIISSEKELK [_VFSIISSEK(GlyGly (K))ELK_]”, the collision cross section is, setting by setting: under setting [7], 424.98 ± 0.97 Å²; under setting [8], 493.89 ± 2 Å². The substance AQPQDSRGGSK [_AQPQDSR(Methyl (R))GGSK_] registered a collision cross section under setting [9] of 351.96 ± 2.1 Å². In turn, “VFLDCCNYITELR [_VFLDCCNY(Nitro (Y))ITELR_]” returned a collision cross section under setting [10] of 448.56 ± 0.53 Å². As for “DLSTVEALQNLKNLK [_DLSTVEALQNLK(Methyl (K))NLK_]”, the collision cross section by setting is: under setting [5], 475.78 ± 3.5 Å²; under setting [6], 545.72 ± 1.2 Å². As to “VVPGYGHAVLR [_VVPGY(Phospho (Y))GHAVLR_]”, the collision cross section runs as follows: under setting [11], 386.55 ± 0.062 Å²; under setting [12], 451.71 Å². Under setting [13], “SGKFTQQDIDEAK [_SGK(Butyryl)FTQQDIDEAK_]” displayed a collision cross section of 419.52 ± 1.7 Å².

Turning to GSRGFPGEK [_GSRGFP(Hydroxyproline)GEK_], under setting [14], the collision cross section amounted to 330.58 ± 0.79 Å². Regarding HIGFVYHPTK [_HIGFVY(Phospho (Y))HPTK_], the collision cross section reads like this: under setting [11], 384.4 ± 0.77 Å²; under setting [12], 458.98 ± 1.8 Å². “IVFSGNLFQHQEDSKK [_IVFSGNLFQHQEDSK(Trimethyl (K))K_]” yielded a collision cross section under setting [4] of 536.81 ± 0.89 Å².

As for “PANEKATDDYHYEK [_PANEK(Acetyl (K))ATDDYHYEK_]”, the collision cross section by setting is: under setting [15], 436.41 ± 2.5 Å²; under setting [16], 502.57 ± 2 Å². As for LEKTIDDLEEK [_LEK(Malonyl)TIDDLEEK_], under setting [2], the collision cross section turned out to be 405.85 ± 0.59 Å². Regarding VRFHNPR [_VR(Citrullination (R))FHNPR_], the collision cross section came out at 325.95 ± 14 Å² (charge state: 2, modification: Citrullination (R)) and 406.17 Å² under setting [17].

As to “LQLGTPPPLLAARLVPPR [_LQLGTPPPLLAAR(Citrullination (R))LVPPR_]”, the collision cross section under setting [17] came out at 576.16 ± 0.34 Å². As for DFDTALKHYDK [_DFDTALK(Methyl (K))HYDK_], the collision cross section by setting is: under setting [5], 393.99 Å²; under setting [6], 458.02 ± 4 Å². Take “VSPASSVDSNIPSSQGYKK [_VSPASSVDSNIPSSQGYK(Biotin)K_]”: the collision cross section by setting is: under setting [18], 474.43 Å²; under setting [19], 539.94 ± 1.6 Å². As to “TGGTQTDLFTCGKCK [_TGGTQTDLFTCGK(Gluratylation)CK_]”, under setting [20], the collision cross section is recorded as 442.58 Å². For “SPSDSGYSYETIGKTTK [_SPSDSGYSYETIGK(Formyl)TTK_]”, the collision cross section under setting [21] amounted to 446.06 ± 0.77 Å² and the collision cross section (charge state: 3, modification: Formyl) came to 518.69 ± 1.8 Å².

Regarding “AGPNASIISLKSDK [_AGPNASIISLK(Biotin)SDK_]”, the collision cross section under setting [18] was 431.71 ± 1.7 Å² and the collision cross section under setting [19] turned out to be 469.41 Å². Regarding ITASLCDLKSR [_ITASLCDLK(GlyGly (K))SR_], the collision cross section runs as follows: under setting [7], 398.64 ± 0.87 Å²; under setting [8], 457.36 ± 1.1 Å². Consider “GFALVGVGSEASSKK [_GFALVGVGSEASSK(Gluratylation)K_]”, for which the collision cross section is recorded as 416.74 ± 0.49 Å² under setting [20] and 499.26 ± 3.6 Å² under setting [22]. Under setting [23], “SKHLQEQLNELK [_SK(Dimethyl (K))HLQEQLNELK_]” had a collision cross section of 492.51 ± 0.54 Å². As to “GTISAPGKVVTAAAQAK [_GTISAPGK(Methyl (K))VVTAAAQAK_]”, the collision cross section reads like this: under setting [5], 466.62 ± 2.3 Å²; under setting [6], 495.95 ± 2.3 Å².

Turning to IYHPNVDK [_IY(Nitro (Y))HPNVDK_], the collision cross section under setting [10] was found to be 340.06 ± 0.72 Å² and the collision cross section (charge state: 3, modification: Nitro (Y)) came out at 427.49 ± 0.064 Å². As for “DKALPLEAEVAPVK [_DK(Dimethyl (K))ALPLEAEVAPVK_]”, the collision cross section is reported as 411.93 ± 0.85 Å² under setting [24] and 502.53 ± 1.6 Å² under setting [23]. The substance “VEPIHAVVLPRGK [_VEPIHAVVLPR(Methyl (R))GK_]” had a collision cross section under setting [9] of 424.97 ± 1 Å² and a collision cross section (charge state: 3, modification: Methyl (R)) of 489.93 ± 2.2 Å². For “DSSPTTNSKLSALQR [_DSSPTTNSK(Dimethyl (K))LSALQR_]”, the collision cross section by setting is: under setting [24], 423.14 ± 1.1 Å²; under setting [23], 472.53 ± 1.6 Å².

With “SLIGKVDGTSHVTGK [_SLIGKVDGT(HexNAc (ST))SHVTGK_]”, under setting [25], the collision cross section is given as 438.41 Å². As to “DVNAAIAAIKTK [_DVNAAIAAIK(Methyl (K))TK_]”, the collision cross section by setting is: under setting [5], 392.53 ± 0.95 Å²; under setting [6], 462.62 ± 2.7 Å².

Turning to “FDDTNPEKEEAK [_FDDTNPEK(GlyGly (K))EEAK_]”, the collision cross section came out at 402.92 ± 5.6 Å² under setting [7] and 486.07 ± 0.34 Å² under setting [8]. “GGPGSTLSFVGKR [_GGPGSTLSFVGK(Butyryl)R_]”: the collision cross section under setting [13] worked out at 388.34 ± 1.3 Å² and the collision cross section (charge state: 3, modification: Butyryl) was 432.12 ± 3.2 Å². In the case of “VPTTEKPTVTVNFR [_VPTTEK(Acetyl (K))PTVTVNFR_]”, the collision cross section runs as follows: under setting [15], 421.49 ± 1.9 Å²; under setting [16], 507.52 ± 1 Å².

Turning to LDHLAEKFR [_LDHLAEK(Gluratylation)FR_], the collision cross section stood at 375.69 ± 0.099 Å² under setting [20] and 446.6 ± 1.7 Å² under setting [22]. The substance LGNDFHTNKR [_LGNDFHTNK(Malonyl)R_] returned a collision cross section under setting [2] of 378.38 Å². Consider “SGNLTEDDKHNNAK [_SGNLTEDDK(GlyGly (K))HNNAK_]”, for which the collision cross section was found to be 432.48 ± 1.6 Å² under setting [7] and 495.64 ± 0.34 Å² under setting [8]. “SITHSTVGSKGEK [_SITHSTVGSK(Dimethyl (K))GEK_]”: the collision cross section is reported as 401.87 ± 2.2 Å² under setting [24] and 464.51 ± 2.1 Å² under setting [23]. In turn, “YEQEHAAIQDKLFQVAK [_YEQEHAAIQDK(Dimethyl (K))LFQVAK_]” registered a collision cross section under setting [23] of 556.37 ± 0.79 Å². Take LLEEEDSKLK [_LLEEEDSK(Dimethyl (K))LK_]: the collision cross section is, setting by setting: under setting [24], 385.27 ± 0.26 Å²; under setting [23], 435.11 ± 2.1 Å².

Regarding “ISEILLDHGAPIQAK [_IS(HexNAc (ST))EILLDHGAPIQAK_]”, the collision cross section runs as follows: under setting [25], 457.74 ± 0.56 Å²; (charge state: 3, modification: HexNAc (ST)) 559.32 ± 1.1 Å². “TFGKAAGPSLSHTSGGTQSK [_TFGK(Gluratylation)AAGPSLSHTSGGTQSK_]” registered a collision cross section under setting [22] of 518.15 ± 2 Å².

“PPGFSPFRSSR [_PP(Hydroxyproline)GFSPFRSSR_]”: the collision cross section was found to be 367.16 Å² under setting [14] and 458.87 ± 0.35 Å² under setting [1]. On to “LLFSNTAAQKLR [_LLFSNTAAQK(hydroxyisobutyryl)LR_]”, for which the collision cross section under setting [26] is 408.17 ± 0.55 Å² and the collision cross section (charge state: 3, modification: hydroxyisobutyryl) was determined as 486.85 ± 1.9 Å². Regarding “TPNLYIYSKK [_TPNLYIYSK(Trimethyl (K))K_]”, the collision cross section reads like this: under setting [3], 381.37 ± 0.61 Å²; under setting [4], 442.31 Å². On to “IGNSYFKEEK [_IGNSYFK(hydroxyisobutyryl)EEK_]”, for which, under setting [26], the collision cross section is recorded as 380.01 ± 0.8 Å². With “TVSKVDDFLANEAK [_TVSK(Formyl)VDDFLANEAK_]”, the collision cross section under setting [21] came out at 415.84 ± 0.18 Å². With “VLDSGAPIKIPVGPETLGR [_VLDSGAPIK(Dimethyl (K))IPVGPETLGR_]”, under setting [23], the collision cross section was 506.24 ± 0.56 Å². Turning to “GETASKLQSEISR [_GETASK(Dimethyl (K))LQSEISR_]”, the collision cross section is recorded as 398.3 ± 1.1 Å² under setting [24] and 460.41 ± 2.6 Å² under setting [23]. Where the note is “charge state: 2, modification: Crotonyl”, LLEQKTQESQK [_LLEQK(Crotonyl)TQESQK_] gave a collision cross section of 398.38 ± 1.1 Å².

As to “SDSGKPYYYNSQTK [_SDSGK(Malonyl)PYYYNSQTK_]”, the collision cross section under setting [2] was 422.4 ± 0.57 Å². For “SKHLQEQLNELK [_SK(Trimethyl (K))HLQEQLNELK_]”, the collision cross section is listed as 417.87 Å² under setting [3] and 506.13 ± 1.6 Å² under setting [4]. For the substance SDDESSQKDIK [_SDDESSQK(Malonyl)DIK_], the collision cross section under setting [2] was 372.43 ± 0.63 Å².
